In EP2718312B1 (TLA Targeted Immunotherapies AB, dated 2018):
Bridges are numbered along the chain shown (N, C = ends). The star is where a group is joined. Biotin = O=C1N[C@H]2[C@H](CS[C@H]2CCCCC(=O)*)N1

T1: hCCR2b (human, UniProt P41597 1-374)
T1 chain: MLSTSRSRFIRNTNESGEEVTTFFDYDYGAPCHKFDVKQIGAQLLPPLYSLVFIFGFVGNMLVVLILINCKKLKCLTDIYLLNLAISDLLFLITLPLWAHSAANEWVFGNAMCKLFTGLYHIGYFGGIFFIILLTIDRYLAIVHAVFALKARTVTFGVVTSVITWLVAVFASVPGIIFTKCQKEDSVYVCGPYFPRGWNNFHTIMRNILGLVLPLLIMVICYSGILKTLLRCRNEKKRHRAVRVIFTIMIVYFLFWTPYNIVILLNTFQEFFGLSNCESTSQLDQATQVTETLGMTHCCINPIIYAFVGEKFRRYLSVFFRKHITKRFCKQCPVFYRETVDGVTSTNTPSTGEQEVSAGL


Experiments:
hCCR2b = biological target: T1, hCCR2b; assay: cell-based or functional assay
hCCR5 = hCCR5 (human, UniProt P51681 1-352); assay: cell-based or functional assay
Sequence of hCCR5 (P51681 whole entry): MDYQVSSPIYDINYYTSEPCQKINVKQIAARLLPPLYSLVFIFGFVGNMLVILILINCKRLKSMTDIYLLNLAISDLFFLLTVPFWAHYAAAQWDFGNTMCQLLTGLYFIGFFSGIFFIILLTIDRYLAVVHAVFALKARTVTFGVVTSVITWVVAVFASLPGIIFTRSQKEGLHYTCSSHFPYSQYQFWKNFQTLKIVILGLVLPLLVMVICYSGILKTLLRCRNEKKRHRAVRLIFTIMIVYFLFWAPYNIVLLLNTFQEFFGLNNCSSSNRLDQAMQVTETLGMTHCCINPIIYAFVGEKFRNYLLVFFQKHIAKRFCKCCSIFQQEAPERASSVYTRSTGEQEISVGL

Row | EC50, Aequorin assay (partial agonist) (hCCR2b) [nM] | EC50, agonist activity in an Aequorin assay (hCCR5) [nM] | Binder
1 | 23.5 | – | recombinant native MCP-2 (ligand, human, UniProt P80075 24-99, looked up) QPDSVSIPITCCFNVINRKIPIQRLESYTRITNIQCPKEAVIFKTKRGKEVCADPKERWVRDSMKHLDQIFQNLKP
2 | – | 0.5 | biotinRANTES (CCL5) (ligand, disulfide 10-34, 11-50; also: TFA salt) SPYSSDTTPCCFAYIARPLPRAHIKEYFYTSGKCSNPAVVFVTRKNRQVCANPEKKWVREYINSLEK(Biotin)S-OH
